This is an account of results in US20140249045A1 (MEDICINAL BIOCONVERGENCE RESEARCH CENTER, published 2014).

B2: HA-tagged RagD (enzyme, UniProt Q9NQL2 1-400, looked up)
chain: MSQVLGKPQPQDEDDAEEEEEEDELVGLADYGDGPDSSDADPDSGTEEGVLDFSDPFSTEVKPRILLMGLRRSGKSSIQKVVFHKMSPNETLFLESTNKICREDVSNSSFVNFQIWDFPGQIDFFDPTFDYEMIFRGTGALIFVIDSQDDYMEALARLHLTVTRAYKVNTDINFEVFIHKVDGLSDDHKIETQRDIHQRANDDLADAGLEKIHLSFYLTSIYDHSIFEAFSKVVQKLIPQLPTLENLLNIFISNSGIEKAFLFDVVSKIYIATDSTPVDMQTYELCCDMIDVVIDISCIYGLKEDGAGTPYDKESTAIIKLNNTTVLYLKEVTKFLALVCFVREESFERKGLIDYNFHCFRKAIHEVFEVRMKVVKSRKVQNRLQKKKRATPNGTPRVLL
notes: Expressed in 293T cells, used as cell lysate; also called HA-RagD; not shown: HA tag

The target in experiment [1] is T1, endogenous LRS of 293T cells (Homo sapiens (Human), UniProt Q9P2J5 1-1176).
T1 construct: Endogenous protein in HEK293T cell lysates, detected with anti-LRS antibody
Kind of experiment: immunoprecipitation of 293T lysates with anti-Raptor antibody, anti-LRS and anti-RagD blots (FIG. 4a). The procedure:
293T cells were starved for amino acids for 1 hour and re-stimulated with amino acids for 5 min.

The target of experiment [2] is T2, myc-tagged methionyl-tRNA synthetase (MRS) (UniProt P56192 1-900).
T2 construct: also called myc-tagged MRS; not shown: myc tag
T2 sequence (looked up): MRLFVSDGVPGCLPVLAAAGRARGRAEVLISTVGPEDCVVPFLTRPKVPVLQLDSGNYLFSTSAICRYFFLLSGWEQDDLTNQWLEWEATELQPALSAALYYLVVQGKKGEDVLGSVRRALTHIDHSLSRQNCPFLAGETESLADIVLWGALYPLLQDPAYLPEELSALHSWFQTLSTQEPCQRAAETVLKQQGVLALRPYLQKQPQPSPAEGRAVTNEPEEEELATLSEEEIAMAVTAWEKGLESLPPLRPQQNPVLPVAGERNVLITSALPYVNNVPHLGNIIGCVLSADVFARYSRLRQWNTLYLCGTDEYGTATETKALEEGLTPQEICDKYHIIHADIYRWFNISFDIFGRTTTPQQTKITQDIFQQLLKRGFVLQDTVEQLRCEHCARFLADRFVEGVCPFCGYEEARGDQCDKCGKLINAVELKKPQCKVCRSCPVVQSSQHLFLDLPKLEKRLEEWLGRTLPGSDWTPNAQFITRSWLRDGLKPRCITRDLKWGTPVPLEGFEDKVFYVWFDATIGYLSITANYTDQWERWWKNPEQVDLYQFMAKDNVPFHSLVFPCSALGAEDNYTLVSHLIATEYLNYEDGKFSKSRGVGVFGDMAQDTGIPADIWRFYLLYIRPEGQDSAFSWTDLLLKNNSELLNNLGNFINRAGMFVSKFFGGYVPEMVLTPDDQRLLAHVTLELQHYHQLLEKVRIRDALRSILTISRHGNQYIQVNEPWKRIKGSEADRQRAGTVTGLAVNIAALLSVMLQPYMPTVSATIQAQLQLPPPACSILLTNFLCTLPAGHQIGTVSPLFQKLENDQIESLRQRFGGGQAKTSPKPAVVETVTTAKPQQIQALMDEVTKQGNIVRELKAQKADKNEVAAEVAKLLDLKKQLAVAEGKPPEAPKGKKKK
Kind of experiment: co-immunoprecipitation with anti-HA antibody, anti-myc blot (FIG. 3c). How it is done:
(§1) The co-precipitated myc-tagged protein was determined by immunoblotting with anti-myc antibodies.

Experiment [3] addresses T3, myc-tagged glutamyl-prolyl-tRNA synthetase (EPRS) (UniProt P07814 1-1512).
T3 construct: also called myc-tagged EPRS; not shown: myc tag
The description is as above. The procedure: as §1

For experiment [4], the target named is T4, myc-tagged isoleucyl-tRNA synthetase (IRS) (UniProt P41252 1-1262).
T4 construct: also called myc-tagged IRS; not shown: myc tag
T4 sequence (looked up): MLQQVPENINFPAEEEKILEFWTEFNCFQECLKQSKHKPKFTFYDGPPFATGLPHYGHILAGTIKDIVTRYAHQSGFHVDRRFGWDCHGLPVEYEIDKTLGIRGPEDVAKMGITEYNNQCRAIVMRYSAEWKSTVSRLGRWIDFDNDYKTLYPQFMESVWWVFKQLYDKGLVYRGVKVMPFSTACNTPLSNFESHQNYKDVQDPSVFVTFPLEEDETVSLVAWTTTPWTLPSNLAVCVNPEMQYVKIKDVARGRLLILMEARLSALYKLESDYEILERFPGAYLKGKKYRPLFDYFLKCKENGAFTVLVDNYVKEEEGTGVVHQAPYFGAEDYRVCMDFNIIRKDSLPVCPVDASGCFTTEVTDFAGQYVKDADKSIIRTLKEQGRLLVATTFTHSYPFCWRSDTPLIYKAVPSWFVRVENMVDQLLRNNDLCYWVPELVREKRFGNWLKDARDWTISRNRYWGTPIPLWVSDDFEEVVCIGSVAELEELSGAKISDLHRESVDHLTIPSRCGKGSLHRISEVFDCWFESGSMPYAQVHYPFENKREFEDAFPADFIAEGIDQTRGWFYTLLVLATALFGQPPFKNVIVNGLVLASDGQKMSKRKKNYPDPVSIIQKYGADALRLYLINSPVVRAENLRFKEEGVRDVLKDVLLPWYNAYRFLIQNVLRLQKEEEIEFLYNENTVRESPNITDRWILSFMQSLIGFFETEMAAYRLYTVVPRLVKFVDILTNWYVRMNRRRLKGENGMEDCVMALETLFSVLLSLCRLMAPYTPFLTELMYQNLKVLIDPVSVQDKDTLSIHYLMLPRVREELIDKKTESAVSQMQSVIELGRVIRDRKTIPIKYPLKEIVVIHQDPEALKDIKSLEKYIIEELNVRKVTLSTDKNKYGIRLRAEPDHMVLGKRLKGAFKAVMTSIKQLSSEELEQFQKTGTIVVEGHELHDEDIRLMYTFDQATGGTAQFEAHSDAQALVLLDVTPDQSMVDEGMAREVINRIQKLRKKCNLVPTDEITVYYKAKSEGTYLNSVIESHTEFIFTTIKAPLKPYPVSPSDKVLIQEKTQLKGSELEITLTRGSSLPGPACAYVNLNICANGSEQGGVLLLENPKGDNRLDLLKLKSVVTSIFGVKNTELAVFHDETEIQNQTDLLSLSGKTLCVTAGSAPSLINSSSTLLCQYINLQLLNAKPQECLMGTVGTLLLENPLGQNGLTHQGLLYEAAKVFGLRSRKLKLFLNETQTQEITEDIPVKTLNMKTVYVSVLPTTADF
The description is as above. How it is done:
as §1

In a further experiment the target is T5, His-LRS-(1-1176) (Homo sapiens (Human), UniProt Q9P2J5 1-1176).
T5 construct: Expressed in E. coli BL21(DE3), purified on Ni-chelating agarose, coated on the ELISA plate; not shown: His tag from pET16a vector
Kind of experiment: ELISA: plate coated with LRS-(1-1176) (500 ng/ml), GST-RagD detected with anti-GST antibody (FIG. 13a).

The next experiment deals with T6, His-LRS-(759-1176) (Homo sapiens (Human), UniProt Q9P2J5 759-1176).
T6 construct: not shown: His tag from pET16a vector
T6 sequence: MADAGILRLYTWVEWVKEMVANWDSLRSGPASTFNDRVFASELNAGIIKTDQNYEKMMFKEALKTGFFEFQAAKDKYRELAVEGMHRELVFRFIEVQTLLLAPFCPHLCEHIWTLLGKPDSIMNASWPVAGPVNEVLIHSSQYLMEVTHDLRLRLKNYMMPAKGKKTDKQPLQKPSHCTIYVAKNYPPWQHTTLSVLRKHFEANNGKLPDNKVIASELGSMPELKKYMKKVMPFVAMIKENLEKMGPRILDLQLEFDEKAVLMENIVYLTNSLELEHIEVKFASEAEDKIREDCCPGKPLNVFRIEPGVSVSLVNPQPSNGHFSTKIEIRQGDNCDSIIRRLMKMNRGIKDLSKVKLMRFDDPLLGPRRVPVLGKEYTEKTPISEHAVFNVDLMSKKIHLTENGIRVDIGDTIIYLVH
The experiment in a line: ELISA competition: His-LRS-(759-1176) added to GST-RagD on plate-coated His-LRS-(1-1176) (FIG. 13b).

The experiment “HA-tagged RagD” deals with B2. The experiment in a line: in vitro GST pull-down of HA-RagD lysate, anti-HA blot (FIG. 3h). How it is done: Binding assay was conducted in 25 mM Tris-HCl buffer (pH7.4) containing 10 mM NaCl, 1 mM MgCl₂, 1 mM EDTA, 0.5 mM EGTA, and 0.5% Triton X-100.

T3 sequence (P07814 whole entry): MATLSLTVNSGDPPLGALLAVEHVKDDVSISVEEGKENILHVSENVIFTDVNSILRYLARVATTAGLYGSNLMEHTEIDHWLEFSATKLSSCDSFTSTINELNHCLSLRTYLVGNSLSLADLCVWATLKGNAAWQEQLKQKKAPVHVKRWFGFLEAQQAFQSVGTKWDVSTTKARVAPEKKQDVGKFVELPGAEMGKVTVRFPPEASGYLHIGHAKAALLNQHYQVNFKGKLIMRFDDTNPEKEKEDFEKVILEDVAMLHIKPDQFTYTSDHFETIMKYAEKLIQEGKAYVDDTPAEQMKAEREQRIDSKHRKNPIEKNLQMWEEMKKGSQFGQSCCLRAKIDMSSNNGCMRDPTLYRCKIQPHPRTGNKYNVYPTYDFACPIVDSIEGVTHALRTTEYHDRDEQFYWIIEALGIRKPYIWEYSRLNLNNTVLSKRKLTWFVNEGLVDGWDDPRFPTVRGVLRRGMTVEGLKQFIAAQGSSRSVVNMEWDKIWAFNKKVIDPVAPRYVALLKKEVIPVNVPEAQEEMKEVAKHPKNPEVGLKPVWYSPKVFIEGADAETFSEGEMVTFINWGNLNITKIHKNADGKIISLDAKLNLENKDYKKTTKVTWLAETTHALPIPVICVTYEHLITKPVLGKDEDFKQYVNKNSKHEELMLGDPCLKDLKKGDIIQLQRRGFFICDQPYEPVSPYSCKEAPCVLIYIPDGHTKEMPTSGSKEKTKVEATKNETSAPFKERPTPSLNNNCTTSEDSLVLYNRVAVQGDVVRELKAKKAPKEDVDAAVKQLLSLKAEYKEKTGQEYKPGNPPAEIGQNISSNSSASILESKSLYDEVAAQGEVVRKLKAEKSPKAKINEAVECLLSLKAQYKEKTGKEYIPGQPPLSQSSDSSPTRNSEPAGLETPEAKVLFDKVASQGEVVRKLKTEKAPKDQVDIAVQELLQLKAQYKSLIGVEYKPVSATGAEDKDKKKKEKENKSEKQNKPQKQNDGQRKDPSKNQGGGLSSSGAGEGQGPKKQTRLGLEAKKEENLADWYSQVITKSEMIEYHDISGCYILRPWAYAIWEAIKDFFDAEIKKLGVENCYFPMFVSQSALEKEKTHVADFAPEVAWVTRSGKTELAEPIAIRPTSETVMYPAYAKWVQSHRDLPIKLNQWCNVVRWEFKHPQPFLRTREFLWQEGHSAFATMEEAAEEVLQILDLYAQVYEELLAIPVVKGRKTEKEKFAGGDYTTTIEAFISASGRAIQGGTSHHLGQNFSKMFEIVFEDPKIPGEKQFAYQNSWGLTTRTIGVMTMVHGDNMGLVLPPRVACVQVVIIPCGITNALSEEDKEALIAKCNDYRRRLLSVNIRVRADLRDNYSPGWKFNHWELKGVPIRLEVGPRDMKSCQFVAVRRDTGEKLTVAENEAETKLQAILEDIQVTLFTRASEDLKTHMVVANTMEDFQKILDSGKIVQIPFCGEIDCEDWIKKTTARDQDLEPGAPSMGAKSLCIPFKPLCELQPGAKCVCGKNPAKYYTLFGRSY

B1: endogenous RagD of 293T cells (enzyme, UniProt Q9NQL2 1-400, looked up)
chain: MSQVLGKPQPQDEDDAEEEEEEDELVGLADYGDGPDSSDADPDSGTEEGVLDFSDPFSTEVKPRILLMGLRRSGKSSIQKVVFHKMSPNETLFLESTNKICREDVSNSSFVNFQIWDFPGQIDFFDPTFDYEMIFRGTGALIFVIDSQDDYMEALARLHLTVTRAYKVNTDINFEVFIHKVDGLSDDHKIETQRDIHQRANDDLADAGLEKIHLSFYLTSIYDHSIFEAFSKVVQKLIPQLPTLENLLNIFISNSGIEKAFLFDVVSKIYIATDSTPVDMQTYELCCDMIDVVIDISCIYGLKEDGAGTPYDKESTAIIKLNNTTVLYLKEVTKFLALVCFVREESFERKGLIDYNFHCFRKAIHEVFEVRMKVVKSRKVQNRLQKKKRATPNGTPRVLL
notes: Endogenous protein in 293T cell lysates, detected with anti-RagD antibody
On to B1, for which the binding result in experiment [1] is given as “binds”.

Regarding B2, the binding result in experiment [2], in experiment [3] and in experiment [4] was “no binding” each time.

B3: GST-RagD (RagD-(1-400)) (enzyme, UniProt Q9NQL2 1-400, looked up)
chain: MSQVLGKPQPQDEDDAEEEEEEDELVGLADYGDGPDSSDADPDSGTEEGVLDFSDPFSTEVKPRILLMGLRRSGKSSIQKVVFHKMSPNETLFLESTNKICREDVSNSSFVNFQIWDFPGQIDFFDPTFDYEMIFRGTGALIFVIDSQDDYMEALARLHLTVTRAYKVNTDINFEVFIHKVDGLSDDHKIETQRDIHQRANDDLADAGLEKIHLSFYLTSIYDHSIFEAFSKVVQKLIPQLPTLENLLNIFISNSGIEKAFLFDVVSKIYIATDSTPVDMQTYELCCDMIDVVIDISCIYGLKEDGAGTPYDKESTAIIKLNNTTVLYLKEVTKFLALVCFVREESFERKGLIDYNFHCFRKAIHEVFEVRMKVVKSRKVQNRLQKKKRATPNGTPRVLL
notes: range 1-400; Expressed in E. coli BL21, purified on GSH agarose; also called peptide spanning aa 1-400 of RagD; RagD protein; not shown: glutathione S-transferase (GST) tag from pGEX4T3 vector (GE healthcare)
On to B3, for which the binding result with His-LRS-(1-1176) and with His-LRS-(759-1176) was “binds” in each case.

B4: GST-LRS fragment 971-1176 (enzyme)
chain: VIASELGSMPELKKYMKKVMPFVAMIKENLEKMGPRILDLQLEFDEKAVLMENIVYLTNSLELEHIEVKFASEAEDKIREDCCPGKPLNVFRIEPGVSVSLVNPQPSNGHFSTKIEIRQGDNCDSIIRRLMKMNRGIKDLSKVKLMRFDDPLLGPRRVPVLGKEYTEKTPISEHAVFNVDLMSKKIHLTENGIRVDIGDTIIYLVH
notes: not shown: glutathione S-transferase (GST) fusion tag
For B4, in the experiment with HA-tagged RagD, the binding result was “no binding”.
